Publication PMC1839165, “Virus Evolution Reveals an Exclusive Role for LEDGF/p75 in Chromosomal Tethering of HIV” (PLoS Pathogens, 2007)

B1: C-terminal His6-tagged HIV-1 integrase, wild type (enzyme, HIV-1 (NL4-3), UniProt P12497 1148-1435, looked up)
chain: FLDGIDKAQEEHEKYHSNWRAMASDFNLPPVVAKEIVASCDKCQLKGEAMHGQVDCSPGIWQLDCTHLEGKVILVAVHVASGYIEAEVIPAETGQETAYFLLKLAGRWPVKTVHTDNGSNFTSTTVKAACWWAGIKQEFGIPYNPQSQGVIESMNKELKKIIGQVRDQAEHLKTAVQMAVFIHNFKRKGGIGGYSAGERIVDIIATDIQTKELQKQITKIQNFRVYYRDSRDPVWKGPAKLLWKGEGAVVIQDNSDIKVVPRRKAKIIRDYGKQMAGDDCVASRQDED
notes: HIV-1 NL4-3 integrase (IN), the cut product of the Gag-Pol polyprotein; GenBank U26942, base pairs 3608 through 4471; the results call it IN^s (IN from a synthetic gene); also called IN-WT; WT IN^s; not shown: His6, C-terminal, kept
B2: MBP-IBD (domain or fragment, human, UniProt O75475-1 347-429, looked up)
chain: SMDSRLQRIHAEIKNSLKIDNLDVNRCIEALDELASLQVTMQQAQKHTEMITTLKKIRRFKVSQVIMEKSTMLYNKFKNMFLV
notes: the introduction gives amino acids 347 to 429 for the IBD; GenBank NM_033222; The limits are those printed for the minimal IBD in the introduction; also called IBD-MBP; source: E. coli BL21 (plasmid pMBP-IBD), purified
B3: MBP-Δ325 (domain or fragment, human, UniProt O75475-1 325-530, looked up)
chain: EQQNKDEGKKPEVKKVEKKRETSMDSRLQRIHAEIKNSLKIDNLDVNRCIEALDELASLQVTMQQAQKHTEMITTLKKIRRFKVSQVIMEKSTMLYNKFKNMFLVGEGDSVITQVLNKSLAEQRQHEEANKTKDQGKKGPNKKLEKEQTGSKTLNGGSDAQDGNQPQHNGESNEDSKDNHEASTKKKPSSEERETEISLKDSTLDN
notes: GenBank NM_033222; also called Δ325-MBP; Δ325 fragment; source: E. coli BL21 (plasmid pMBP-Δ325), purified

Experiments:
[1] = target: C-terminal His6-tagged HIV-1 integrase A128T (HIV-1 (NL4-3)); assay: AlphaScreen or HTRF; 300 nM C-terminal His6-tagged IN with increasing MBP-Δ325 (30 to 300 nM); Ni-chelate acceptor beads, anti-MBP donor beads; 25 mM Tris/HCl pH 7.3, 150 mM NaCl, 1 mM MgCl2, 0.01% Tween-20, 0.1% BSA; room temperature
[2] = target: C-terminal His6-tagged HIV-1 integrase E170G (HIV-1 (NL4-3)); assay: as above
[3] = target: C-terminal His6-tagged HIV-1 integrase A128T/E170G (HIV-1 (NL4-3)); assay: as above
Nontagged LEDGF/p75 = target: T1, Nontagged LEDGF/p75 (human, UniProt O75475-1 1-530); assay: pull-down; 6 μg C-terminal His6-tagged IN on Ni-NTA-agarose; 6 μg LEDGF/p75, MBP-IBD or MBP-Δ325 added; 25 mM Tris-HCl pH 7.4, 0.1% Nonidet P-40, 20 mM imidazole, 150 mM NaCl, 1 mM MgCl2, BSA; 4 h at 4 °C; SDS-PAGE, Coomassie Blue; settings: both partners purified
T1 construct: LEDGF/p75, human, 530 amino acids, GenBank NM_033222; also called recombinant LEDGF/p75; full-length LEDGF/p75; source: E. coli BL21(DE3) (plasmid pCPnat75), purified

[4] = target: B1; assay: as above; settings: both partners purified
[5] = target: B1; assay: AlphaScreen or HTRF; 30 nM C-terminal His6-tagged IN with increasing MBP-Δ325 (30 to 300 nM); Ni-chelate acceptor beads, anti-MBP donor beads; 25 mM Tris/HCl pH 7.3, 150 mM NaCl, 1 mM MgCl2, 0.01% Tween-20, 0.1% BSA; room temperature; settings: both partners purified

“MBP-Δ325 (from UniProt O75475-1 325-530) (domain or fragment)” was tested, and the fold reduction of the AlphaScreen signal compared with IN-WT (300 nM IN) [1] was 2 fold, the fold reduction of the AlphaScreen signal compared with IN-WT (300 nM IN) [2] was 3 fold and the fold reduction of the AlphaScreen signal compared with IN-WT (300 nM IN, 300 nM MBP-Δ325) [3] was 8 fold.

B1: binds (Nontagged LEDGF/p75).

B2: binds [4].

B3: binds [5].
